Data reported in article PMC9965484.

Target: Fibroblast activation protein (FAP), recombinant human, carrier-free (BioLegend) (Homo sapiens) (UniProt Q12884)
Assay: CE-LIF (NECEEM)
Details: CE-LIF/NECEEM: buffer for Kd not stated, CE separation (SELEX) 20 kV, 25 C, specificity: 10 min at 37 C, PBS pH 7.2 as control, AuNP assay: room temperature …

Sequence of UniProt Q12884 (Q12884 whole entry): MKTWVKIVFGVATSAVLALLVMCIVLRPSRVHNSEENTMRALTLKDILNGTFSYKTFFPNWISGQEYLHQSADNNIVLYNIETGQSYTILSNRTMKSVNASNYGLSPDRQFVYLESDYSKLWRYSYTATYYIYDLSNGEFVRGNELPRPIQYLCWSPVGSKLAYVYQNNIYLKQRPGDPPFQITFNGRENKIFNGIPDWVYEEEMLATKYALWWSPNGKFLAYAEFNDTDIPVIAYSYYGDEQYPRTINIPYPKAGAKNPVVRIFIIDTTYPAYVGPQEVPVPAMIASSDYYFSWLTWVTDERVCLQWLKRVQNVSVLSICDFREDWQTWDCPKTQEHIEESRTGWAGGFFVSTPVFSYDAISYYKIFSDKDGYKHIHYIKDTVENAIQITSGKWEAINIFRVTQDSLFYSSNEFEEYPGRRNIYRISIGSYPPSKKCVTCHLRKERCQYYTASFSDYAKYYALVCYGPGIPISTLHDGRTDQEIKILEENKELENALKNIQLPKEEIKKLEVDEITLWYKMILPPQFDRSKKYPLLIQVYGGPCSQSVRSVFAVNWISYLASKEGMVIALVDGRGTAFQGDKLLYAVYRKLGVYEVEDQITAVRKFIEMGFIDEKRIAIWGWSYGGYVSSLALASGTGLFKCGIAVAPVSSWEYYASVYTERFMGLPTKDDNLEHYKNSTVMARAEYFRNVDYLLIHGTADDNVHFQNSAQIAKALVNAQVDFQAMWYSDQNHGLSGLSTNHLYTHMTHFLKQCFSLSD

AGCAGCACAGAGGTCAGATGCCGCAGGCAGCTGCCATTAGTCTCTATCCGTGACGGTATGCCTATGCGTGCTACCGTGAA [AptFAP-A4]
Kd: 500 nM

AGCAGCACAGAGGTCAGATGGCAGCTAAGCAGGCGGCTCACAAAACCATTCGCATGCGGCCCTATGCGTGCTACCGTGAA [AptFAP-A5]
Kd (exact value only in figure): > 1000 nM

AGCAGCACAGAGGTCAGATGGCCACATTAGTCTCACCACTACCTGCGTACCTACCGCCGCCCTATGCGTGCTACCGTGAA [AptFAP-A2]
Kd (lowest affinity of the five, exact value only in figure): > 1000 nM

AGCAGCACAGAGGTCAGATGGCCATCCCCCCGTCCGATGAGTGGTGCTCCTATGCGTTCCCCTATGCGTGCTACCGTGAA [AptFAP-A3]
Kd (exact value only in figure): > 1000 nM

AGCAGCACAGAGGTCAGATGGCGAAGCGTACCGGCTACCCAGTGACAGTCGCCGTGGGTCCCTATGCGTGCTACCGTGAA [AptFAP-A1]
Kd: 500 nM
